Laboratory results published in paper PMC6554060 (Journal of molecular biology, 2019).

Target: His6-tagged WT-αSyn (human, UniProt P37840 1-140)
Experiment: BLI

- Kd: 15.3 µM
B1: E234G/H363A-HYPE (enzyme)
chain: GKLEARAALNQALEMKRQGKREKAQKLFMHALKMDPDFVDALTEFGIFSEEDKDIIQADYLYTRALTISPYHEKALVNRDRTLPLVEEIDQRYFSIIDSKVKKVMSIPKGNSALRRVMEETYYHHIYHTVAIGGNTLTLSEIRHILETRYAVPGKSLEEQNEVIGMHAAMKYINTTLVSRIGSVTISDVLEIHRRVLGYVDPVEAGRFRTTQVLVGHHIPPHPQDVEKQMQEFVQWLNSEEAMNLHPVEFAALAHYKLVYIAPFIDGNGRTSRLLMNLILMQAGYPPITIRKEQRSDYYHVLEAANEGDVRPFIRFIAKCTETTLDTLLFATTEYSVALPEAQPNHSGFKETLPVKP
